The DeepSol protein solubility set

experiment: soluble on expression in E. coli; label from the status in PepcDB or PDB records

| Sequence | soluble on expression in E. coli |
| --- | --- |
| MSLNFTLHTLNGIKLWLVLLLLSGAINVCRADSPRQTINFNRGWKYCQGDFDHAARPGFDDSEWEKIGLPHSFSTPYFMSKDFYVGYGWYRKAFPVKKEILGKKSFLEFDGVFQEAEIFVNGHLAGTHKGGYTGFSIDISAYLKEGKNLVAVRVNNCWRPDLAPRAGEHVFSGGIYRNVRLVIKPPTYIDWYGTWITTPDLAENKGKSGSVHIRTDVCNASGKTDTYRLLTTVVDAQGKEVSSVSTSQVLPDNATYTFEQQTKEIQAPQLWHPNHPALYKVISSLYHGQELIDRYETAFGFRWFEWTADRGFFLNGEHLYFKGANVHQDHAGWGDAVTETGMRRDIRLVKEAGFDLIRGSHYPHSPAFSQACDEIGMLFWAENAFWGIGGHKGDGYWNASAYPVNESDRAEFENSVKAQLKELIRIHRNHPSIIVWSMSNEPFFTAPETINPMRKLLEETVKLSKQLDPTRPAAVGGAQRPLGEKRIDKLGDIAGYNGDGSYIPEFQQPGMPTVVSEYGSTTADRPGEYDPGWGDLAKNNAQNGFPWRSGQAIWCAFDHGSIAGSALGKMGIIDYFRIPKRAWYWYRNAYKGITPPEWPQEGTPARISLVADRTDNIKADGTDDVMLSITILDASGKPVSNSPAVKLDILSGPGEFPTGTSILFEKESDIRILDGKAAIEFRSYYAGETVIRATSPGLEPAEVKIRFTGSTPYTEAFKVKERPYTRFETPTKTDNLQTFGPNNPTFCSSSANGHSSAFAADGDESTYWQASENDPERSWTLDTEKGLSIRHIRIAFPDLTPYQYKVEVSMDREHWSLIPDQTNNKQNENIRMIQVVPGIQGRFVRISFTGEKAAITDVQVIGTVIDEGHHHHHH | soluble |
| MSNSVTNFEMSSVLPGKKPCQGKNNESQVVQTTPIKKHSVTFKNQSSLGVIDHYARLTNKSHSSVIAEVVDLAIPILEKCNRHNWSINEIKNDLLKFSIKESINRSRGKTEVTLEEYCSLIWKTNIMSPLKIPIADYFQLNANDEFMGKDEKTVIRERLSSLRENYDMEKAIYIYNQRHFDVKHQSVSGYSNIILIHRTTFEGYYFDAGQALLLSTSQLIIFGINEVLRRKGIVMPYPVVCWIDIYHVNEMVVMLPVLRKTDVSNRVNVPDDIIINPYSQESRT | soluble |
| MKKLYIITGPAGVGKSTTCKRLAAQLDNSAYIEGDIINHMVVGGYRPPWESDELLALTWKNITDLTVNFLLAQNDVVLDYIAFPDEAEALAQTVQAKVDDVEIRFIILWTNREELLRRDALRKKDEQMGERCLELVEEFESKGIDERYFYNTSHLQPTNLNDIVKNLKTNPRFIFCMAGDPLEHHHHHH | soluble |
| RRFEPLLLLPIGFGGLLSNIPEAGLAMTALDHLLHYAHTEQLTIIAEKVNSSSLDVHTIKQAIAFAPPSVQNELEVIASDLGYNAG | not soluble |
| MALTTRRRALTTLGAALTGAVALPAGTALASQGGHGPRPLWRAHAHNDYEHPRPLLDALDHRFGSVEADIYLVGGQLLVAHDPEDLDPSRTLESLYLDPLAARVRAHHGRVYRRDRGSLQLLIDIKTEGEATYLELDRRLRRYKNLFTSYAHGRVFPGAVTAVVSGDRAARAPMAAQRSRRAFYDGRLTDLGTVAPASFVPLISDNWTLNFTWQGVGTFPAAERRRLRDIVGAAHARGQRVRFWATPDVAGPARDAVWAELLAAGVDHLNTDDLAGIEAFLDAHRDALEHHHHHH | soluble |
| MKQVCVLGNGQLGRMLRQAGEPLGIAVWPVGLDAEPTAVPVQQSVITAEIERWPETALTRELARHPAFVNRDVFPIIADRLTQKQLFDKLGLATAPWQLLTSTDEWSGIFDRLGELAIIKRRVGGYDGRGQWRLRADETGQLPDDCYGECIVERGIHFSGEVSLVGARAHDGSTVFYPLTHNLHQDGILRTSVAFPQANAEQQEQAESMLSAIMQALNYVGVMAMECFITPEGLLINELAPRVHNSGHWTQNGASISQFELHLRAITGLPLPAPVINAPSVMINLIGSELNYDWLKLPLVHLHWYDKAVRPGRKVGHLNLTDSDTSRLSATLEALSPLLPGEYASGIIWAQSKLK | not soluble |
| MKAKTLGELRRTYPLEKLRRTVKDEARENLREKLRRGERLFPGIHGYEDTVIPALVQAILAKQNFILLGTRGQAKSRILRSLTSLLDEEVPALATELRDNPLHPISPEGKRLLEEAGDDAPIVWLSREDRYVEKLATPDTTVADLLGDMDPIKAARRGTGMADLESIHYGLLPRANRGIFAVNELADLAPKVQVALFNILEEGDVQIRGYPLRLPLDVWLVFTANPQDYTARGRIVTPLKDRIGSEIRTHYPRSLEEGARISAQEAYVPEGVLVPEWVRLSVEAVAFVAREDRRVDQTAGVSQRLAISLLEVVAASAERRALLHGGRPVARPLDLYQGLPAITGKLELEYEGELQGAERVAREIVQRAFGLVLPRYRLRTEPIVAHFEEGNLLTLPEGDVEEALKAMAGVPGLLEAARALAEGEAPEVLLSAGEFVLEGLVGRRKLSRGEATYQAAERPRSYGN | soluble |
| TEEDPSSGHGGVALESLSSFLAHSRRAGIYRLHLPDSVLSHFVRAALDYRERQVPFDFAFDSASDAELYCTELVAAALLRADSLLPIRPSISVAGRRVYSLDDLLLLPGTKCMALAN | not soluble |
| FVDPLCPECWSLEPVIKKLKIRYGRFFTLRIIASASLTALNKKRKKHLLAEAWEKIASRSGMSCDGNVWFEQDQPLSSPYMAALAFKAAELQGRKAGMQFLRNMQESLFVSKKNITDENVLLEIAENTSLDLEEFKKDLHSQSAVKALQCDMKIAAEMDVSVNPTLTFFNTQHEDEGLKVPGSYSYDVYEEILFEMLGDE | not soluble |
| MSGVASGKTAIKSTAKVLSFVVQKHWATRLHYDFRLELEGTMKSWAVPKGPSFDPNDKRMAVHVEDHPISYNSFEGEIPSGQYGAGKVIIWDKGTWIPLEDPHKGYRDGKLKFELRGLKLKGHWALVRMRKEENKKQEPWLLIKEKDEYVRSSREYSVVDEMPDSVAELEHHHHHH | not soluble |
| MTVIIKSMETPEEIEGKSFVHWQTWREAYDDLLPAEFQETMTLERCRLFSQKYPENTLIAMDGVKIVGFISYGNCRDETIQAGEIIALYVLKDYYGKGIAQKLVKAALTDLNHFSEIFLWVLKDNKRAIAFYQKMGFTFDGQEKILELGKPIKEKRMVFYSK | not soluble |
| MGSSHHHHHHSQDPTVPAQLQFSAKTLDGHDFHGESLLGKPAVLWFWAPWCPTCQGEAPVVGQVAASHPEVTFVGVAGLDQVPAMQEFVNKYPVKTFTQLADTDGSVWANFGVTQQPAYAFVDPHGNVDVVRGRMSQDELTRRVTALTSR | soluble |
| MGQQLLSHQSVSSQWLANQSATSTLPLLDLSLLSGSDTERQAFLTALRHAARDVGFFYLTGHGIDTSLLRQIQILSRQFFALSDEEKLSIAMIRSPHFRGYNRAASEFTRGQPDWREQFDIGAERTPLPQIAGAPSWTRLQGPNQWPTALPELKPVLLQWQEEMTRMSLRLLRAFALALDLDEQAFDALYGDKPNEHIKLIRYPGREATQSGQGVGAHKDSGFLSFLLQDTQRGLQVEVEEGQWIDAVPREGTFVVNIGELLELASNGYLRATVHRVETPPAGIDRLSIAFFLGARLDAVVPLYPLSAALAAEARGPASDPHNPLFRDVGLNYLKGRLRSHPDVAERYYSDALCS | not soluble |
| MGSDKIHHHHHHMPVRRIALITNGYPDIYARERSFILPELKALLAYGHQVTLVPVREVTEVDPDLPDGVAVERRLAHLYRPWQLPATVLWMMFRGYFWREAWQCLGRGRLRYLGHFFKESVRATNTLRMQSALRDYDVLYTYWFKGESTGISLMPGTHARRLTRAHGYDLYEDRPNNEGYIPYREMTLPRLDRVVVLSEEARAYLEQRYPASVGRTVVSPLGVAHESDENPGPEADRIVLVSCSYPTPNKRLPLIGQLAAAVACARPSVKVVWMHFGCRREEAGLPVDFAGPPNLSVQFAGEAPNEHIRRWYATRPVSFFVNLSQSEGQPVSIMEAMAFGIPVMATGVGGIPEMLRHGGGMTLPEQPDVNAVAREMLSLLDDPSRYQAMREAARETQLAYFNTSANHRTLADLIGEF | not soluble |
| MGSDKIHHHHHHMKPWQGISEFAAVAEQQSFTAAARQLRLSVAQVSRNIAALEHRLQMQLLYRSTRSVSLTEEGKLYLPHCQHLVASLRDADQAIQQRTQQPQGLIRITAPVYYGERFIAPLLNDFLHIYPECRLDFQLTNEQVDLIEGSYDVAIRLGQLGNPRLRARKLGSRRHFVVGSPAYFEEFGRPQDINALDAHRCFTGTVRQWRFQVEGKLETVRPESYLHCNNGLALRDAAMKGLGLAMLPDYYVTDSLANGQLEEVLADYRQPDDGIWALYPENRQVIPKVRVLLDYLSGNLSGNLSGKFNTGEIEN | not soluble |
| MYNSMDEVPVSLHASIDTGDGEFDMNALISNNAHILFIVLDSLRYDIALQEQTAGNTPNLNHYGQWTKCEAAGNFTWPSHHAMFSGFMPKPIDDTVNQTMLFFPKDIGLGRKGPKNAFAFDDATWIKSLENKGYQTICIGGVSFFNNRSGMGKVFPSMFKESYWHPRFACTVKESMDNQIHYIQKIMAERAGSQPVMMYINIDTIHYPNHFYVEGAAPGDTVETHAAALRYIDARIDGLLNIFRQTGGATFVIVCSDHGTCYGEDGKYFHSFNHPIVNTVPYMHFLLSGNHLEHHHHHH | soluble |
| MWAVIRMRTFRRSTRNAVSRMRKPKPRASAKQRSLERHFGSRQPTKNKFLNAIYWGIRRCQYFLCCYDDEVEDELEDASANPFNTQPPGLDQLVQLTGFNRKWIMFMYRNFKQKCSNGRMTDSQWRILFRSIFPQANDSAFIDRLYAAIVKKKQHPQITFEDLILCLWELSEDGKTSEMGNYHINSSARAQFAFQLMDEEGKGRVDEPGFYKYTRCVFALTAVNKPCTDQIIDASTIGLPASSIYRSTSVDDVLKPMSPLIARFSSKRFKELDTDRDGFITVRDIERELEIQKNEAICLKSLKDFSFEDLKNEEDDDDEDDQDTNPLLSESSSFKKDV | not soluble |
| MYRIIEAPNSGKYPFSHSLLIGKSCIIDTGSGEALAPLRVDCVLNTHWHEDHIAMNSIGRKVLAHPLDAEAIESYEEFRRRYGIGDSVRLFINFEFGQVDDVFEDGEQLEFEGVSVEVIHTPGHSAGHCCFVINNEAVFLGDIDLTSFGPWYGCLDCDVDDFVRSVKKMMREVERRDIEIAIPSHGRPVYGKEEIIGAMREYLKKIFERDKAIRELVRLGVDPVGKGIIYRKIPEPREIYLHFEKIMVEKHLTTSLDEFCLDLEHHHHHH | not soluble |
| MKYTLDQLNVYNPDGKAKSISIIHGLTISTSNTNSDTTGLTGCLYLTTKNQANDPSFSVYVIKQAQTVSTTQPNSTVVILNTELNPDISNYDQPLKTSYVTNINQSPDSDLFFQWDIPASGWTQKDVTNQFFENPIILETFDWNTMKKNFTRQFFDHIEPLQIGVKYWYFTASKPVSMTMESKYVSNLMYTATSVNTTGLIVNDFVFLEHVVNFPLDLTRVRTIGTLISAFPESSTINFVYKDDQSSSRQSFSTEQTHSLFDTYMQASSLTINATALIPGRFFCQYFGVTGDLLPPGTSTPSTPSTVETTMPSTTRISTTPSAAPHEFQLICFIIAFLLVL | not soluble |
| MDAPLAEQDLKALFLRHARQLQSYLLRKTRDPHLAADLAQESFLRLAEQRHKEPIEHVDAYLYRTAHNLTIDHYRQERRRRTETQPNDDLAGFVADQPGPEESAVDADALARLREIVAELPPRTREIFRLNRLEGLTHAEVARRLEISDSSVQKHLARTLAHVMQALEDSR | not soluble |
